In patent US20130295110A1 one finds fold change in MFI over secondary antibody alone and fold-change in MFI over secondary antibody alone data, which are given here for one substance.

Assay [1] deals with full length human PSMA (human) (UniProt Q04609). Description: FACS, 15 ug/ml on LNCaP cells, PE goat anti-mouse IgG (control of FIG. 24 study).
Assay [2] shares this target. Description: FACS, 15 ug/ml on LNCaP cells, PE goat anti-mouse IgG (control of FIG. 29 study). On the technique in general: In flow cytometry, cells or beads pass a laser one at a time.
Assay [3] has the same target. Nature of the assay: FACS, 15 ug/ml on LNCaP cells, PE goat anti-mouse IgG (control of FIG. 13 study).
Assay [4] has the same target. Description: FACS, 15 ug/ml on LNCaP cells, PE goat anti-mouse IgG (control of FIG. 19 study).

full length human PSMA (human), sequence (Q04609 whole entry): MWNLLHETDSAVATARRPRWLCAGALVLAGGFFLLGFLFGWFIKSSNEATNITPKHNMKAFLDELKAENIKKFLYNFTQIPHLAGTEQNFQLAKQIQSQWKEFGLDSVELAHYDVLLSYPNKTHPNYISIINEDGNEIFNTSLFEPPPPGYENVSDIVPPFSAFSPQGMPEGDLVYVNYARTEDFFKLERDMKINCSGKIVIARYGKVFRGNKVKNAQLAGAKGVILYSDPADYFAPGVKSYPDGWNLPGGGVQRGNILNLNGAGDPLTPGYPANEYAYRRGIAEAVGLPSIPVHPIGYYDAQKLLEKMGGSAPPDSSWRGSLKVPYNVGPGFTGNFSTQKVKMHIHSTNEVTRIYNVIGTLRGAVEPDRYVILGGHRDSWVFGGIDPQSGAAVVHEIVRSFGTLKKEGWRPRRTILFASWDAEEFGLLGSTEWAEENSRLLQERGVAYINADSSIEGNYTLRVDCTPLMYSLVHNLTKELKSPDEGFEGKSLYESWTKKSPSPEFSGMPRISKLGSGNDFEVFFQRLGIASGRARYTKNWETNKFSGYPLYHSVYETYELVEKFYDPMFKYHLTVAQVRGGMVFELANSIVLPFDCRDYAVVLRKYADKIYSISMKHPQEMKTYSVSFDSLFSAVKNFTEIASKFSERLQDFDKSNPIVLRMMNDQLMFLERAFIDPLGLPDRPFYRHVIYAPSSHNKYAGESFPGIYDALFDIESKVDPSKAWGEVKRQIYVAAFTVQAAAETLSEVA

For “mouse anti-human PSMA monoclonal antibody, clone J591-A”, the fold change in MFI over secondary antibody alone is 45.3 fold in assay [1], 14.3 fold in assay [2] and 45.3 fold in assay [4]. For the same substance, the fold-change in MFI over secondary antibody alone in assay [3] was 45.3 fold.
